Test results reported in paper PMC7026729 (EBioMedicine, 2020).
Where a chain is given by its changes, count along the chain named.

B1: Bacterial lipocalin Blc^G84 (natural protein, E. coli, UniProt P0A901 19-177, looked up)
chain: CSSPTPPRGVTVVNNFDAKRYLGTWYEIARFDHRFERGLEKVTATYSLRDDGGLNVINKGYNPDRGMWQQSEGKAYFTGAPTRAALKVSFFGPFYGGYNVIALDREYRHALVCGPDRDYLWILSRTPTISDEVKQEMLAVATREGFDVSKFIWVQQPGS
B2: Bacterial lipocalin Blc^E84 (natural protein, E. coli, UniProt P0A901 19-177, looked up)
chain: B1 chain with G66E

Target: the molecule itself
Test: cross-linking

| Protein | stoichiometry N |
| --- | --- |
| B1 | 2 |
| B2 | 2 |
